The term Tm denotes the temperature at which the thermal transition is half complete.

Our source for the Tm values is the array DNA melting data of Ke et al..

This data set in a line: melting temperature; melt of duplexes. As to conditions: sodium 0.0675 M; strand 1 µM.
“CGACGTGCCAAATGTGCTG+CAGCACATAGGGCACGTCG (((((((((..((((((((+))))))))..)))))))))”: the midpoint of thermal melting (Tm) amounted to 54.6 °C. On to “CGACGTGCCATATGTGCTG+CAGCACATTATGCACGTCG ((((((((...((((((((+))))))))...))))))))”, for which the Tm stood at 50.3 °C. With “CGACGTGCTCTATGTGCTG+CAGCACATACAGCACGTCG (((((((((.(((((((((+))))))))).)))))))))” the figure was 52.5 °C; with “CGACGTGCAGGATGTGCTG+CAGCACATACCGCACGTCG ((((((((.(.((((((((+)))))))).).))))))))”, 53.7 °C.

For “CGACGTGCAGCATGTGCTG+CAGCACATTGTGCACGTCG (((((((((..((((((((+))))))))..)))))))))”, the Tm was found to be 44.8 °C.

As to “CGACGTGCACAATGTGCTG+CAGCACATTGGGCACGTCG ((((((((.((((((((((+)))))))))).))))))))”, the Tm was found to be 61.2 °C. With “CGACGTGCCGCATGTGCTG+CAGCACATTATGCACGTCG ((((((((...((((((((+))))))))...))))))))” the figure was 46.4 °C; with “CGACGTGCTGCATGTGCTG+CAGCACATTCTGCACGTCG ((((((((.(.((((((((+)))))))).).))))))))”, 51.8 °C; with “CGACGTGCGCTATGTGCTG+CAGCACATGGTGCACGTCG ((((((((.(.((((((((+)))))))).).))))))))”, 54.6 °C.

In the case of “CGACGTGCGACATGTGCTG+CAGCACATATGGCACGTCG ((((((((.(.((((((((+)))))))).).))))))))”, the melting temperature (Tm) came out at 50.2 °C. As to “CGACGTGCATTATGTGCTG+CAGCACATCCTGCACGTCG (((((((((..((((((((+))))))))..)))))))))”, the Tm is 49.9 °C. As for “CGACGTGCGGAATGTGCTG+CAGCACATTTAGCACGTCG ((((((((..(((((((((+)))))))))..))))))))”, the Tm stood at 55.1 °C. The value for “CGACGTGCGGAATGTGCTG+CAGCACATACGGCACGTCG ((((((((.(.((((((((+)))))))).).))))))))” was 53.3 °C. The value for “CGACGTGCTATATGTGCTG+CAGCACATGGTGCACGTCG ((((((((...((((((((+))))))))...))))))))” was 47.7 °C; that for “CGACGTGCGTAATGTGCTG+CAGCACATTGCGCACGTCG (((((((((.(((((((((+))))))))).)))))))))” was 60.3 °C; that for “CGACGTGCGCCATGTGCTG+CAGCACATACAGCACGTCG ((((((((...((((((((+))))))))...))))))))” was 51.3 °C. For “CGACGTGCCTCATGTGCTG+CAGCACATTGCGCACGTCG ((((((((...((((((((+))))))))...))))))))”, the Tm was determined as 47.5 °C. For the substance “CGACGTGCTTAATGTGCTG+CAGCACATCGCGCACGTCG ((((((((...((((((((+))))))))...))))))))”, the Tm worked out at 46.7 °C. Consider “CGACGTGCAACATGTGCTG+CAGCACATTGCGCACGTCG ((((((((...((((((((+))))))))...))))))))”, for which the Tm is 48.8 °C. Regarding “CGACGTGCGGAATGTGCTG+CAGCACATCGAGCACGTCG ((((((((...((((((((+))))))))...))))))))”, the Tm was 54.6 °C. With “CGACGTGCGCCATGTGCTG+CAGCACATTCTGCACGTCG ((((((((...((((((((+))))))))...))))))))”, the Tm came out at 47.8 °C.

For “CGACGTGCATGATGTGCTG+CAGCACATTCTGCACGTCG (((((((((..((((((((+))))))))..)))))))))”, the Tm turned out to be 52.9 °C. As for “CGACGTGCTCAATGTGCTG+CAGCACATCCCGCACGTCG ((((((((...((((((((+))))))))...))))))))”, the Tm worked out at 48 °C. As to “CGACGTGCGAGATGTGCTG+CAGCACATGCTGCACGTCG ((((((((...((((((((+))))))))...))))))))”, the midpoint of thermal melting (Tm) came to 50.4 °C. As to “CGACGTGCCGAATGTGCTG+CAGCACATTTTGCACGTCG ((((((((..(((((((((+)))))))))..))))))))”, the Tm was 51.7 °C. With “CGACGTGCCAGATGTGCTG+CAGCACATCAAGCACGTCG ((((((((..(((((((((+)))))))))..))))))))” the figure was 53.7 °C; with “CGACGTGCGTGATGTGCTG+CAGCACATGGTGCACGTCG ((((((((...((((((((+))))))))...))))))))”, 47.8 °C; with “CGACGTGCTACATGTGCTG+CAGCACATAGGGCACGTCG ((((((((...((((((((+))))))))...))))))))”, 50.8 °C. “CGACGTGCACCATGTGCTG+CAGCACATCCGGCACGTCG ((((((((...((((((((+))))))))...))))))))”: the Tm stood at 42.7 °C. In the case of “CGACGTGCGCGATGTGCTG+CAGCACATTCTGCACGTCG ((((((((...((((((((+))))))))...))))))))”, the Tm was determined as 50.4 °C.

As for “CGACGTGCGCAATGTGCTG+CAGCACATGAGGCACGTCG ((((((((...((((((((+))))))))...))))))))”, the Tm amounted to 52.4 °C.

With “CGACGTGCAAGATGTGCTG+CAGCACATGGAGCACGTCG ((((((((...((((((((+))))))))...))))))))”, the midpoint of thermal melting (Tm) was 51.6 °C. For the substance “CGACGTGCATGATGTGCTG+CAGCACATTTGGCACGTCG ((((((((...((((((((+))))))))...))))))))”, the Tm was 50.3 °C. Turning to “CGACGTGCCAAATGTGCTG+CAGCACATGCGGCACGTCG (((((((((..((((((((+))))))))..)))))))))”, the Tm stood at 57.1 °C.

Regarding “CGACGTGCTTAATGTGCTG+CAGCACATGTGGCACGTCG ((((((((...((((((((+))))))))...))))))))”, the Tm was found to be 51.9 °C. With “CGACGTGCGCCATGTGCTG+CAGCACATCCCGCACGTCG (((((((((..((((((((+))))))))..)))))))))” the figure was 50.6 °C; with “CGACGTGCCCGATGTGCTG+CAGCACATAACGCACGTCG ((((((((...((((((((+))))))))...))))))))”, 47.6 °C. As for “CGACGTGCCGAATGTGCTG+CAGCACATTAAGCACGTCG ((((((((..(((((((((+)))))))))..))))))))”, the Tm turned out to be 52.3 °C.

Regarding “CGACGTGCGAAATGTGCTG+CAGCACATACAGCACGTCG ((((((((...((((((((+))))))))...))))))))”, the Tm worked out at 53.3 °C. Turning to “CGACGTGCCCCATGTGCTG+CAGCACATGAAGCACGTCG ((((((((..(((((((((+)))))))))..))))))))”, the Tm is 52 °C. Regarding “CGACGTGCCGTATGTGCTG+CAGCACATGGCGCACGTCG ((((((((...((((((((+))))))))...))))))))”, the Tm was found to be 50.3 °C. In the case of “CGACGTGCGGGATGTGCTG+CAGCACATACAGCACGTCG ((((((((.(.((((((((+)))))))).).))))))))”, the melting temperature (Tm) came out at 56.5 °C. Turning to “CGACGTGCTAGATGTGCTG+CAGCACATCAAGCACGTCG (((((((((.(((((((((+))))))))).)))))))))”, the Tm was 57.5 °C.

“CGACGTGCGGAATGTGCTG+CAGCACATTCAGCACGTCG ((((((((.((((((((((+)))))))))).))))))))”: the Tm turned out to be 60.2 °C.

Regarding “CGACGTGCGCTATGTGCTG+CAGCACATTGCGCACGTCG ((((((((((.((((((((+)))))))).))))))))))”, the Tm was determined as 61 °C. With “CGACGTGCGGGATGTGCTG+CAGCACATCAAGCACGTCG ((((((((..(((((((((+)))))))))..))))))))” the figure was 57.6 °C; with “CGACGTGCTCAATGTGCTG+CAGCACATATGGCACGTCG ((((((((...((((((((+))))))))...))))))))”, 50.5 °C. The value for “CGACGTGCGACATGTGCTG+CAGCACATCGAGCACGTCG ((((((((...((((((((+))))))))...))))))))” was 54.8 °C; that for “CGACGTGCCGTATGTGCTG+CAGCACATCTAGCACGTCG ((((((((...((((((((+))))))))...))))))))” was 49.1 °C. Take “CGACGTGCGTTATGTGCTG+CAGCACATATCGCACGTCG (((((((((.(((((((((+))))))))).)))))))))”: the melting temperature (Tm) turned out to be 56.5 °C. On to “CGACGTGCCACATGTGCTG+CAGCACATCTCGCACGTCG ((((((((.(.((((((((+)))))))).).))))))))”, for which the Tm was determined as 46.8 °C. With “CGACGTGCACTATGTGCTG+CAGCACATGAAGCACGTCG ((((((((...((((((((+))))))))...))))))))”, the Tm stood at 45.9 °C. As to “CGACGTGCAGTATGTGCTG+CAGCACATAGTGCACGTCG (((((((((.(((((((((+))))))))).)))))))))”, the Tm stood at 55.1 °C. In the case of “CGACGTGCTCAATGTGCTG+CAGCACATTGCGCACGTCG ((((((((.((((((((((+)))))))))).))))))))”, the Tm turned out to be 56.6 °C. Take “CGACGTGCACTATGTGCTG+CAGCACATCTCGCACGTCG ((((((((...((((((((+))))))))...))))))))”: the melting temperature (Tm) amounted to 41.6 °C.

As to “CGACGTGCAATATGTGCTG+CAGCACATAGTGCACGTCG (((((((((.(((((((((+))))))))).)))))))))”, the Tm stood at 53.9 °C. With “CGACGTGCGGAATGTGCTG+CAGCACATATGGCACGTCG ((((((((...((((((((+))))))))...))))))))” the figure was 50.8 °C; with “CGACGTGCCGCATGTGCTG+CAGCACATCAGGCACGTCG (((((((((..((((((((+))))))))..)))))))))”, 55.5 °C.

As to “CGACGTGCAAGATGTGCTG+CAGCACATTTAGCACGTCG ((((((((.(.((((((((+)))))))).).))))))))”, the Tm amounted to 51.1 °C. In the case of “CGACGTGCGCCATGTGCTG+CAGCACATAACGCACGTCG (((((((((..((((((((+))))))))..)))))))))”, the midpoint of thermal melting (Tm) was determined as 52.4 °C.

Take “CGACGTGCAACATGTGCTG+CAGCACATGTGGCACGTCG ((((((((.((((((((((+)))))))))).))))))))”: the Tm is 59.3 °C. For “CGACGTGCTCCATGTGCTG+CAGCACATCTTGCACGTCG ((((((((...((((((((+))))))))...))))))))”, the Tm came to 47.2 °C. For the substance “CGACGTGCAAAATGTGCTG+CAGCACATGGAGCACGTCG ((((((((...((((((((+))))))))...))))))))”, the Tm stood at 53.9 °C. As to “CGACGTGCCTAATGTGCTG+CAGCACATTTTGCACGTCG ((((((((..(((((((((+)))))))))..))))))))”, the Tm was 51.1 °C. The value for “CGACGTGCCATATGTGCTG+CAGCACATGTTGCACGTCG ((((((((.(.((((((((+)))))))).).))))))))” was 50.8 °C; that for “CGACGTGCATCATGTGCTG+CAGCACATTCTGCACGTCG (((((((((..((((((((+))))))))..)))))))))” was 50.5 °C.
